Experimental data as given in patent publication US20100120171A1.

Experiments:
[1] = target: recombinant fragment of human VE-cadherin extracellular region, CAD 1-4 fragment (Asp48-Glu478, preceded by Met), SEQ ID NO: 4 (human) (UniProt P33151); experiment: SDS-PAGE and western blot of the purified fragment with BV9
[2] = target: recombinant fragment of human VE-cadherin extracellular region, CAD 1-4 fragment (Asp48-Glu478, preceded by Met), SEQ ID NO: 4 (human) (UniProt P33151); experiment: sandwich ELISA, BV9 capture, rabbit polyclonal detection; CAD1-4 at 10 ng/mL
[3] = target: recombinant fragment of human VE-cadherin extracellular region, CAD 1-4 fragment (Asp48-Glu478, preceded by Met), SEQ ID NO: 4 (human) (UniProt P33151); experiment: sandwich ELISA, BV9 capture, rabbit polyclonal detection; CAD1-4 at 2.5 ng/mL
[4] = target: recombinant fragment of human VE-cadherin extracellular region, CAD 1-4 fragment (Asp48-Glu478, preceded by Met), SEQ ID NO: 4 (human) (UniProt P33151); experiment: sandwich ELISA, BV9 capture, rabbit polyclonal detection; CAD1-4 at 0.63 ng/mL
[5] = target: recombinant fragment of human VE-cadherin extracellular region, CAD 1-4 fragment (Asp48-Glu478, preceded by Met), SEQ ID NO: 4 (human) (UniProt P33151); experiment: sandwich ELISA, BV9 capture, rabbit polyclonal detection; CAD1-4 at 1.25 ng/mL
[6] = target: recombinant fragment of human VE-cadherin extracellular region, CAD 1-4 fragment (Asp48-Glu478, preceded by Met), SEQ ID NO: 4 (human) (UniProt P33151); experiment: sandwich ELISA, BV9 capture, rabbit polyclonal detection; CAD1-4 at 5 ng/mL; second replicate
[7] = target: recombinant fragment of human VE-cadherin extracellular region, CAD 1-4 fragment (Asp48-Glu478, preceded by Met), SEQ ID NO: 4 (human) (UniProt P33151); experiment: sandwich ELISA, BV9 capture, rabbit polyclonal detection; CAD1-4 at 2.5 ng/mL; second replicate
[8] = target: recombinant fragment of human VE-cadherin extracellular region, CAD 1-4 fragment (Asp48-Glu478, preceded by Met), SEQ ID NO: 4 (human) (UniProt P33151); experiment: sandwich ELISA, BV9 capture, rabbit polyclonal detection; CAD1-4 at 0.63 ng/mL; second replicate
[9] = target: recombinant fragment of human VE-cadherin extracellular region, CAD 1-4 fragment (Asp48-Glu478, preceded by Met), SEQ ID NO: 4 (human) (UniProt P33151); experiment: sandwich ELISA, BV9 capture, rabbit polyclonal detection; CAD1-4 at 5 ng/mL; mean OD minus OD at 0 ng/mL
[10] = target: recombinant fragment of human VE-cadherin extracellular region, CAD 1-4 fragment (Asp48-Glu478, preceded by Met), SEQ ID NO: 4 (human) (UniProt P33151); experiment: sandwich ELISA, BV9 capture, rabbit polyclonal detection; CAD1-4 at 2.5 ng/mL; mean OD minus OD at 0 ng/mL
[11] = target: recombinant fragment of human VE-cadherin extracellular region, CAD 1-4 fragment (Asp48-Glu478, preceded by Met), SEQ ID NO: 4 (human) (UniProt P33151); experiment: sandwich ELISA, BV9 capture, rabbit polyclonal detection; CAD1-4 at 0.63 ng/mL; mean OD minus OD at 0 ng/mL
[12] = target: recombinant fragment of human VE-cadherin extracellular region, CAD 1-4 fragment (Asp48-Glu478, preceded by Met), SEQ ID NO: 4 (human) (UniProt P33151); experiment: sandwich ELISA, BV9 capture, rabbit polyclonal detection; CAD1-4 at 1.25 ng/mL; mean OD minus OD at 0 ng/mL
[13] = target: recombinant fragment of human VE-cadherin extracellular region, CAD 1-4 fragment (Asp48-Glu478, preceded by Met), SEQ ID NO: 4 (human) (UniProt P33151); experiment: sandwich ELISA, BV9 capture, rabbit polyclonal detection; CAD1-4 at 0.63 ng/mL; mean OD minus OD at 0 ng/mL; remark: listed apart in the source

UniProt P33151, sequence (P33151 other isoform, or with tags, fused parts or gaps limits assumed): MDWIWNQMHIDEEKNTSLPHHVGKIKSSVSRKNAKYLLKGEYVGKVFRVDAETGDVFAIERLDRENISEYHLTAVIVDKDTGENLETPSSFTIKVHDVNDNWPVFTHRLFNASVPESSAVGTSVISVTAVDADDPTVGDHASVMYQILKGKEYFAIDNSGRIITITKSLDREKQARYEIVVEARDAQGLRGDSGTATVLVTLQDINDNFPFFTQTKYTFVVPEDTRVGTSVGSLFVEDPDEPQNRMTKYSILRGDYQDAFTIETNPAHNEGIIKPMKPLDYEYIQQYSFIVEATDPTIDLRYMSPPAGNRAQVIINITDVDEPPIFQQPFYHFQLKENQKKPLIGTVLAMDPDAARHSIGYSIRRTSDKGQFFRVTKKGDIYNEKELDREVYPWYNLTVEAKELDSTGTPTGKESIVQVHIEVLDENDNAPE

“anti-VEcadherin mouse mAb, clone BV9 (Abcam, product datasheet ab7047) (antibody)” gave a lowest detectable quantity [1] of 1 ng, a mean OD [2] of 1.95 OD and a mean OD [3] of 1.17 OD. For the same substance, the OD1 [4] was 0.794 OD, the OD2 [4] was 0.789 OD and the mean OD [4] was 0.792 OD. It also gave a mean OD [5] of 1 OD, an OD [6] of 1.45 OD and an OD [7] of 1.09 OD. For the same substance, the OD [8] was 0.899 OD, the Corr. OD [9] was 0.556 OD and the Corr. OD [10] was 0.288 OD. The Corr. OD [11] was 0.087 OD, the Corr. OD [12] was 0.143 OD and the Corr. OD [13] was 0.051 OD.
